Assay [1] has as its target Dupixent (IgG4 monoclonal antibody). Kind of assay: BLI, biotinylated ligand on sensor; 'Binding affinity (nM)'. (BLI is a label-free optical method that tracks binding on a fibre tip over time.)
Assay [2] deals with Ajovy (IgG2 monoclonal antibody). The description is as above.
In assay [3] the target is Praluent (IgG1 monoclonal antibody). The assay is described as above.
In assay [4] the target is Herceptin Fab with a kappa light chain and binding specificity for Her2/neu (from the monoclonal antibody trastuzumab). Kind of assay: BLI (ForteBio), biotinylated ligand on sensor, 1:1 fit.
Assay [5] deals with dimeric human IgG-lambda (Southern Biotech, Birmingham AL). The assay is described as above.
Assay [6] concerns the target Tremfya Fab with a lambda light chain and binding specificity for IL23 (from the monoclonal antibody guselkumab). The assay is described as above.
The target in assay [7] is Herceptin Fab with a kappa light chain and binding specificity for Her2/neu (from the monoclonal antibody trastuzumab). The assay can be described thus: BLI (ForteBio), biotinylated ligand on sensor, as in Example 2.
Assay [8] deals with dimeric human IgG-lambda (Southern Biotech, Birmingham AL). The assay is described as above.
Assay [9] concerns the target Tremfya Fab with a lambda light chain and binding specificity for IL23 (from the monoclonal antibody guselkumab). The description is as above.

B1: affinity ligand SEQ ID NO: 162 (designed binder)
chain: MGLAEAAAREAAARAADEAERWYDLGAAYAARGDYDRAIEYYQRALELDPNDAWAWWELGVAYAARGDYDRAIEYYQRALELDLNNAVAWARLGIAYAARGDYDRAIEYYQRALELDPNNEVARDALEYARRARRHHHHHH
modifications: biotinylated (AviTag system)
In the case of B1, the values for the Kd in [1], in assay [2] and in assay [3] were 25 nM, 665 nM and below 1 nM, respectively.

B2: affinity ligand SEQ ID NO: 161 (designed binder)
chain: MAWAEFRQRLAAIRTRLEALGGSEAELAAFEREIAAFESELQAYAGAGNPEVEALRREAAAIRDELQAYRHNDEAERWYDLGAAYAARGDYDRAIEYYQRALELDPNDAWAWWELGVAYAARGDYDRAIEYYQRALELDLNNAVAWARLGIAYAARGDYDRAIEYYQRALELDPNNEVARDALEYARRARRHHHHHH
modifications: biotinylated (AviTag system)
Regarding B2, the Kd (usually the constant that tells how readily two partners part at equilibrium) in assay [1] was 31 nM; in [2], 654 nM; in assay [3], below 1 nM.

B3: affinity ligand SEQ ID NO: 89 (designed binder)
chain: MGGGGSAAAGDEAQHWENQGAAYAARGDYDRAIEYYGRALELDPNNAWAWWELGVAYAARGDYDRAIEYYERALELDPDDATTWSRLGHAYAARGDYDRAIEYYERALELDPEDETARYLLEHARRARQGQAGQGGGSGLNDIFEAQKIEWHECHHHHHH
modifications: biotinylated (AviTag system)
For B3, the Kd is 41 nM in [4]; below 1 nM in [5]; 8 nM in assay [6]; 41 nM in assay [7]; below 1 nM in assay [8]; 8 nM in assay [9].

B4: affinity ligand SEQ ID NO: 90 (designed binder)
chain: MGGGGSAAAGDEAQCWENQGAAYAARGDYDRAIEYYERALELDPNNAWAWWELGVAYAARGDYDRAIEYYERALELDPDDATTWSRLGHAYAARGDYDRAIEYYVRALELDPEDETARYLLEHARRARQGQAGQGGGSGLNDIFEAQKIEWHECHHHHHH
modifications: biotinylated (AviTag system)
B4: the Kd in [4] is 51 nM; in [5], below 1 nM; in assay [6] it was 12 nM; in [7] it was 51 nM; in assay [8] it was below 1 nM; in assay [9], 12 nM.

B5: affinity ligand SEQ ID NO: 92 (designed binder)
chain: MGGGGSAAAGDEAQRWENQGAAYAARGDYDRAIEYYERALELEPNNAWAWWELGVAYAARGDYDRAIEYYERALELDPDDATAWSRLGHAYAARGDYDRAIGYYERALELDPENETARYLLEHARRARQGQAGQGGGSGLNDIFEAQKIEWHECHHHHHH
modifications: biotinylated (AviTag system)
For B5, the Kd was 28 nM in assay [4]; below 1 nM in [5]; 8 nM in assay [6]; 28 nM in assay [7]; below 1 nM in assay [8]; 8 nM in assay [9].

B6: affinity ligand SEQ ID NO: 41 (designed binder)
chain: MAQAAAGDEAQRWETLGAAYAARGDYDRAIEYYQRALELDPNNAWAWWELGVAYAARGDYDRAIEYYQRALELDPDDAAAWRRLGHAYAARGDYDRAIEYYERALELDPEDELARRILEDARRARQGQAGQGGGSGLNDIFEAQKIEWHECHHHHHH
modifications: biotinylated (AviTag system)
For the molecule B6, the Kd in assay [7] worked out at 15 nM; in assay [8], 3 nM; in assay [9], 24 nM.

B7: affinity ligand SEQ ID NO: 159 (designed binder)
chain: MGHHHHHHDEAERWYDLGAAYAARGDYDRAIEYYQRALEHDPNDAWAWWELGVAYAARGDYDRAIEYYQRALELDTNNAVAWARLGIAYAARGDYDRAIEYYQRALELDPNNEVARGALEYARRARRC
modifications: biotinylated (AviTag system)
Consider B7, for which the Kd is 9 nM in assay [1], 436 nM in [2] and below 1 nM in assay [3].

B8: affinity ligand SEQ ID NO: 160 (designed binder)
chain: MGHHHHHHDEAERWYDLGAAYAARGDYDRAIEYYQRALELDPNDAWAWWELGVAYAARGDYDRAIEYYQRALELDLNNAVAWARLGIAYAARGDYDRAIEYYQRALELDPNNEVARDALEYARRARRC
modifications: biotinylated (AviTag system)
For B8, the Kd in [1] is 24 nM; in assay [2], 543 nM; in assay [3], below 1 nM.
